Experimental data as given in PMC4081113, “Cationic Surfactant-Based Colorimetric Detection of Plasmodium Lactate Dehydrogenase, a Biomarker for Malaria, Using the Specific DNA Aptamer”.

Assays:
[1] = target: Plasmodium vivax lactate dehydrogenase (PvLDH) (Plasmodium vivax, UniProt Q4PRK9 1-316); test: colorimetric AuNP/CTAB aggregation assay (A650/A520); conditions: protein: recombinant; chain copies: 4
fibrinogen = fibrinogen (human, UniProt P02671-2;P02675;P02679-2 20-644;31-491;27-437); test: colorimetric AuNP/CTAB aggregation assay (A650/A520); 1 uM protein, 4 nM CTAB; 20 mM HEPES pH 7.4, room temperature, 20 nM aptamer with protein 20 min, then 4 nM CTAB 20 min, then AuNPs 5 min (200 uL final); conditions: protein: commercial; chain copies: 2;2;2
Chain of fibrinogen (P02671 other isoform, or with tags, fused parts or gaps, chain 1 of 3): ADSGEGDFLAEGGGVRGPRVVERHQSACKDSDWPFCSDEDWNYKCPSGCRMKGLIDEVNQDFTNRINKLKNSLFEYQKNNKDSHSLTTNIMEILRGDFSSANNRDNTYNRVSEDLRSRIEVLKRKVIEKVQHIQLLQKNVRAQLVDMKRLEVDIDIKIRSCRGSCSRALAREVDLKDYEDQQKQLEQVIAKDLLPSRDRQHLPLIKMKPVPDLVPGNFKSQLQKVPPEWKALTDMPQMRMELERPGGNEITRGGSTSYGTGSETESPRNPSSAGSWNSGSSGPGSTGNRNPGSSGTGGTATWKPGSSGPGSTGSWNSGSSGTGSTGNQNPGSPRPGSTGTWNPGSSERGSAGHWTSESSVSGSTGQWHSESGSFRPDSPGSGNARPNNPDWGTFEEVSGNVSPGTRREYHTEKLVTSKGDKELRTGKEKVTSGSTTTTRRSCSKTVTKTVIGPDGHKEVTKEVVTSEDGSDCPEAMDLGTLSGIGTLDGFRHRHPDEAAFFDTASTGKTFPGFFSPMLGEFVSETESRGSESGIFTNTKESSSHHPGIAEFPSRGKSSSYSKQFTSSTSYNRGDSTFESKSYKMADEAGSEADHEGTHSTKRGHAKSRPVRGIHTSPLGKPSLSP
Chain of fibrinogen (P02675 31-491, chain 2 of 3): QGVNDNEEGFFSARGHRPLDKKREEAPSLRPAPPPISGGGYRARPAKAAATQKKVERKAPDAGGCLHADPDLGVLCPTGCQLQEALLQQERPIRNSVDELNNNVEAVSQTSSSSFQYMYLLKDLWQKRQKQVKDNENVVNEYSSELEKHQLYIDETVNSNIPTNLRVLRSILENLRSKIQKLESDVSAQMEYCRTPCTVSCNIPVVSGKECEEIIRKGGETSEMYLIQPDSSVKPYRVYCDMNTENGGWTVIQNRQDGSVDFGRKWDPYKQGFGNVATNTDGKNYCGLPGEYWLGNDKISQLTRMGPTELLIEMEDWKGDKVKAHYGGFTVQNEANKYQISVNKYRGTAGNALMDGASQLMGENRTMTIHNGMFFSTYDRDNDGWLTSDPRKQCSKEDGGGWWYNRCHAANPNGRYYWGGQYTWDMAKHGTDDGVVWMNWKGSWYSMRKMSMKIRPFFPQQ
Chain of fibrinogen (P02679 other isoform, or with tags, fused parts or gaps, chain 3 of 3): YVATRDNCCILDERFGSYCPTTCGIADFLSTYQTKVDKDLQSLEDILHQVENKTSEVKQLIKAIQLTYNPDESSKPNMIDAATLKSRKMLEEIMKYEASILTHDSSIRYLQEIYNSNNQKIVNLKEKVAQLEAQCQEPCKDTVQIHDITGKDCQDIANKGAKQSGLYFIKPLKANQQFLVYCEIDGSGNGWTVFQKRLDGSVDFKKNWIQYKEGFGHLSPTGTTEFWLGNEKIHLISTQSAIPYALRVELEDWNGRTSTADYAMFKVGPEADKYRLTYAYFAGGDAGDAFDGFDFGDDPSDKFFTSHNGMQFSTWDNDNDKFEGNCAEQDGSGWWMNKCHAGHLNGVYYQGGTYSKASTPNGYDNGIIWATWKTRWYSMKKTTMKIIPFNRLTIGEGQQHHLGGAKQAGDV

[2] = target: human lactate dehydrogenase A chain (hLDHA) (human, UniProt P00338 2-332); test: as above
[3] = target: Plasmodium falciparum lactate dehydrogenase (PfLDH) (Plasmodium falciparum, UniProt Q76NM3 1-316); test: colorimetric AuNP/CTAB aggregation assay (A650/A520); 4 nM CTAB, 20 nM aptamer; LOD 2.94 pM (not a Kd); 20 mM HEPES pH 7.4, room temperature, 20 nM aptamer with protein 20 min, then 4 nM CTAB 20 min, then AuNPs 5 min (200 uL final); conditions: protein: recombinant; chain copies: 4

B1: pL1 aptamer (ssDNA)
DNA: GTTCGATTGGATTGTGCCGGAAGTGCTGGCTCGAAC
Question: Does B1 bind [1]?
Answer: Result: binds

Question: Does B1 bind (fibrinogen)?
Answer: Result: no binding

Question: Does B1 bind [2]?
Answer: Result: no binding

Question: Does B1 bind [3]?
Answer: Result: binds
